Measured values published in doi:10.1101/2025.02.23.639735 (bioRxiv, 2025).

B1: UPF2-AL (domain or fragment, human, UniProt Q9HAU5 1015-1106, looked up)
chain: NDKDSKDSMTEGENLEEDEEEEEGGAETEEQSGNESEVNEPEEEEGSDNDDDEGEEEEEENTDYLTDSNKENETDEENTEVMIKGGGLKHVP
modifications: 15N-labelled (15N/13C for the assignments) in the NMR experiments

Experiments:
3’hExo nuclease domain = biological target: T1, 3’hExo nuclease domain (human, UniProt Q8IV48 124-349); test: NMR titration
T1 sequence (looked up): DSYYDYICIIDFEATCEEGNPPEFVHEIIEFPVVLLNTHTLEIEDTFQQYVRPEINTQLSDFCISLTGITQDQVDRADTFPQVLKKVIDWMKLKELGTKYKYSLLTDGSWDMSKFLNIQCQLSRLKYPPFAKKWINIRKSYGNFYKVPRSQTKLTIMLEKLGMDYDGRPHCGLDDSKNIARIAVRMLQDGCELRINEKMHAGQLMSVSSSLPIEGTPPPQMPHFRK

3’hExofl [1] = biological target: T2, 3’hExofl (human, UniProt Q8IV48 1-349); test: SEC
T2 sequence (looked up): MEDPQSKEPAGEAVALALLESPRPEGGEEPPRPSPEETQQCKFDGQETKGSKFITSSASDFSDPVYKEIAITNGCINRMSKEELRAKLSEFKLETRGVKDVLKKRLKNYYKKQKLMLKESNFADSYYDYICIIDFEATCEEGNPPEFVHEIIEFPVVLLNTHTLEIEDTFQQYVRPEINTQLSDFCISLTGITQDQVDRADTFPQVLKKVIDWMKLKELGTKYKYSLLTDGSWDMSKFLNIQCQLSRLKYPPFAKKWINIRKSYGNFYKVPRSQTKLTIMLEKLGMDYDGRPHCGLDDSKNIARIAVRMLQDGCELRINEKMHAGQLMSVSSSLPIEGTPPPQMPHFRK

UPF2-AL = biological target: B1; test: NMR titration
[2] = biological target: UPF2 (construct of the SPR experiment not stated) (human); test: SPR
3’hExofl [3] = biological target: T2, 3’hExofl; test: NMR titration

Sequence of UPF2 (construct of the SPR experiment not stated) (human) (Q9HAU5 whole entry): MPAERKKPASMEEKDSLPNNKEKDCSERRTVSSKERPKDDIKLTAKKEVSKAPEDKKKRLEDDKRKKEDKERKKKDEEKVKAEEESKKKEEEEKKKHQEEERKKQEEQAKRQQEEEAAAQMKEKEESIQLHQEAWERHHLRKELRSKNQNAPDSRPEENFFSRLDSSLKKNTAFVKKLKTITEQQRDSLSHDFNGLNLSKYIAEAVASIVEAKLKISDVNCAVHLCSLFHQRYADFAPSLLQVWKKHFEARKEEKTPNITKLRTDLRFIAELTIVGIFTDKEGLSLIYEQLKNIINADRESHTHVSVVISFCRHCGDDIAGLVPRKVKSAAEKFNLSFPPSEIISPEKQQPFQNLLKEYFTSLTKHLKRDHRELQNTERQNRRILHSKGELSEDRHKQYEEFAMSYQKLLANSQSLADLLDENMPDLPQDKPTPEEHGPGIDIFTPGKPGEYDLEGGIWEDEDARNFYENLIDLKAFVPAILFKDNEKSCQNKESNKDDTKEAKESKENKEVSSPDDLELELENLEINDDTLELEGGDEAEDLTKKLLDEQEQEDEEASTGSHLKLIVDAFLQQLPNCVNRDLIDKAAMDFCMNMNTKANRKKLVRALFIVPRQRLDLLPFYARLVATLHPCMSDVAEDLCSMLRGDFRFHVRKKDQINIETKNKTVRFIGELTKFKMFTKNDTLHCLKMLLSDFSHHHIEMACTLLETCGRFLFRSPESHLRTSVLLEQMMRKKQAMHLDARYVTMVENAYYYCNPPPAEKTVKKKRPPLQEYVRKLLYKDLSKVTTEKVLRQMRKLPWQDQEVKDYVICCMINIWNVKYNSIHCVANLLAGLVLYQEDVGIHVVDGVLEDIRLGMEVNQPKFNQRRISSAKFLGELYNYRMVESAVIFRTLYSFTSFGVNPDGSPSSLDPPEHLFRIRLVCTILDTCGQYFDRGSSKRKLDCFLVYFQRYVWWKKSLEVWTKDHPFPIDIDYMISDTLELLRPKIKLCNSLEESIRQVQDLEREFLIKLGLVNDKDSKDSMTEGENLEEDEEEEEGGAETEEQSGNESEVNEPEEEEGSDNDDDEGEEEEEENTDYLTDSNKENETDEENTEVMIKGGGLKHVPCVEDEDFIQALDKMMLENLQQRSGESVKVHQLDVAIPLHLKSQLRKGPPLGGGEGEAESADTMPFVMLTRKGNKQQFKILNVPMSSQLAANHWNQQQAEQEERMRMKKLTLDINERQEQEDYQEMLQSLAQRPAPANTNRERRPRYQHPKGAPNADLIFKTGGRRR

## B1
3’hExo nuclease domain
  binding result: binds
3’hExofl [1]
  binding result: binds

B2: 3’hExo SAP domain (domain or fragment, human, UniProt Q8IV48 63-124, looked up)
chain: DPVYKEIAITNGCINRMSKEELRAKLSEFKLETRGVKDVLKKRLKNYYKKQKLMLKESNFAD
UPF2-AL
  binding result: binds

B3: 3’hExo (construct of the SPR experiment not stated) (enzyme)
chain: MEDPQSKEPAGEAVALALLESPRPEGGEEPPRPSPEETQQCKFDGQETKGSKFITSSASDFSDPVYKEIAITNGCINRMSKEELRAKLSEFKLETRGVKDVLKKRLKNYYKKQKLMLKESNFADSYYDYICIIDFEATCEEGNPPEFVHEIIEFPVVLLNTHTLEIEDTFQQYVRPEINTQLSDFCISLTGITQDQVDRADTFPQVLKKVIDWMKLKELGTKYKYSLLTDGSWDMSKFLNIQCQLSRLKYPPFAKKWINIRKSYGNFYKVPRSQTKLTIMLEKLGMDYDGRPHCGLDDSKNIARIAVRMLQDGCELRINEKMHAGQLMSVSSSLPIEGTPPPQMPHFRK
[2]
  Kd: 170 µM

B4: UPF2^1024-1085 (domain or fragment, human, UniProt Q9HAU5 1024-1085, looked up)
chain: TEGENLEEDEEEEEGGAETEEQSGNESEVNEPEEEEGSDNDDDEGEEEEEENTDYLTDSNKE
modifications: also: 15N-labelled
3’hExofl [3]
  Kd: ~200 µM
